The values below come from patent US20240352136A1 (Hoffmann-La Roche, published 2024).

For the assay, the target named is T1, human CD25 (alpha subunit of the interleukin-2 receptor, IL2RA) (human, UniProt P01589 22-272).
T1 sequence: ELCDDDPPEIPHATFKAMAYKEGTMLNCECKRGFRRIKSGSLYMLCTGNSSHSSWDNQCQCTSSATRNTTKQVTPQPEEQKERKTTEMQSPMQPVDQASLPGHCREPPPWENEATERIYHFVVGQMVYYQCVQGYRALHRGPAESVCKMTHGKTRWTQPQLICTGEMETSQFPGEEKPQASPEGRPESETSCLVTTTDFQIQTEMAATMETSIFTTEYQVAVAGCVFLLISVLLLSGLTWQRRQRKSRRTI
The experiment in a line: cell-based or functional assay.

B1: CD25 Mab (RG6292) (antibody, human IgG1, kappa, V domains shown)
VH: QVQLVQSGAEVKKPGSSVKVSCKASGGTFSSLAISWVRQAPGQGLEWMGGIIPIFGTANYAQKFQGRVTITADESTSTAYMELSSLRSEDTAVYYCARGGSVSGTLVDFDIWGQGTMVTVSS
VL: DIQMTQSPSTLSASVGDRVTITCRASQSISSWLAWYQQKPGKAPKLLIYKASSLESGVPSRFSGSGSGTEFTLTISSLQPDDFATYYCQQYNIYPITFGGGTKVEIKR
modifications: afucosylated Fc glycan (produced using the GlymaxX technology)
As to B1, the “ADCC EC50, AML-22 target cells with activated NK cells, flow cytometry readout, 17 h” value was around 0.03 µg/mL; the “ADCC EC50, EOL-1 target cells with activated NK cells, flow cytometry readout, 17 h” value was around 0.03 µg/mL; the “ADCC EC50, EOL-1 target cells, CytoTox-Glo luminescence readout” value was 0.035 µg/mL; the “ADCC EC50, EOL-1 target cells, flow cytometry readout” value is 0.03 µg/mL.
